Data on six compounds can be found in paper PMC12025097, “Elucidation of Expression Patterns and Functional Properties of Archaerhodopsin Derived from Halorubrum sp. Ejinoor” (Biology, 2025).

The target of data set [1] is Bacteriorhodopsin (Halobacterium salinarum) (UniProt P02945). Nature of the data set: SEC; Superdex 200 10/300 GL, 25 °C, 10 mM HEPES pH 7.5, 100 mM NaCl, 0.05% DDM, 0.5 mL/min, detection at 280 and 560 nm; apparent mass from calibration standards, trimer deduced after allowing for bound DDM. (In general: Size exclusion chromatography separates by hydrodynamic size, large species first.)

Data set [2] has as its target T1, BR (Halobacterium salinarum, UniProt P02945).
T1 construct: gene bop; native BR from Hs by sucrose density gradient; text also mentions Ni-NTA purification and a vector-cloned BR from E. coli
T1 sequence (P02945 14-262): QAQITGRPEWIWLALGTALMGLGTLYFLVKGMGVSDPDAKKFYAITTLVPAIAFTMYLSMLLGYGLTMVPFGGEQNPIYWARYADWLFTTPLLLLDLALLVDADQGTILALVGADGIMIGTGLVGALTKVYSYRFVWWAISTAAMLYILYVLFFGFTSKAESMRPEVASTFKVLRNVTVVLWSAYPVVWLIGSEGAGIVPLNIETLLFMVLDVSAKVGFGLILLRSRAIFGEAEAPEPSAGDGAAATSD
Nature of the data set: HPLC of chromophore extracted from purified protein. The format is binding. As to conditions: covalent; Schiff base to Lys216; dark- and light-adapted; 0.05% DDM, 10 mM HEPES, pH 7.5.

In data set [3] the target is Asp85 (UniProt position 98, WARYADWLFTT). Particulars: cited from earlier work.
The target of data set [4] is Halorubrum sp. Ejinoor Archaerhodopsin (Halorubrum sp. Ejinoor). Kind of data set: SEC; Superdex 200 10/300 GL, 25 °C, 10 mM HEPES pH 7.5, 100 mM NaCl, 0.05% DDM, 0.5 mL/min, detection at 280 and 560 nm; apparent mass from calibration standards, trimer deduced after allowing for bound DDM.
In data set [5] the target is Asp95 (UniProt position 95, YARYADWLFTT). Nature of the data set: UV-vis. As to conditions: not stated (six-component buffer said to keep ionic strength constant); citric acid/MES/HEPES/MOPS/CHES/CAPS, each 10 mM; retinal-bound, detergent-solubilised trimer; steady-state titration; light or dark adaptation state not stated.

As for “Bacteriorhodopsin (from UniProt P02945 14-262) (natural protein)”, in data set [1], the stoichiometry N (in general, the number of molecules, sites or subunits per partner or assembly) worked out at 3.
In the case of `CC1=C(/C=C/C(C)=C/C=C/C(C)=C/C=O)C(C)(C)CCC1` [All-trans retinal], the “HPLC of chromophore extracted from purified protein” value in data set [2] was “both HeAR and BR contain only two retinal chromophore isomers: All-trans and 13-cis”.
As for `CC1=C(/C=C/C(C)=C/C=C/C(C)=C\C=O)C(C)(C)CCC1` [13-cis retinal], in data set [2], the “HPLC of chromophore extracted from purified protein” value was “both HeAR and BR contain only two retinal chromophore isomers: All-trans and 13-cis”.
For “Bacteriorhodopsin (BR) (Halobacterium salinarum)”, the pKa (in general, the pH at which an ionisable group is half protonated) in data set [3] was roughly 2.6.
Turning to “Halorubrum sp. Ejinoor Archaerhodopsin (natural protein)”, in data set [4], the stoichiometry N amounted to 3.
For “Archaerhodopsin HeAR (Halorubrum sp. Ejinoor)”, the pKa in data set [5] is on record as 3.5 ± 0.1.
